Assay: soluble on expression in E. coli; label from the status in PepcDB or PDB records

| Sequence | soluble on expression in E. coli |
| --- | --- |
| MKKFFQEIKADIKFKSAGPGQKLTDSAGEKTTKGKSPQLALRQPRQGPTDEAQMAAAAALARLEQKQPRARGPTSQDSIRNQVRKELQAEATSSNNPGAPGTNSVPEPKEEISPHLAVPGVFFICPLTGVTLRRDQRDAHIKQAILSHFSTDPVAASIMKIHTFNRDRDRVKLGVDTIAKYLDNIHLHPEEEKYQKIKLQNKVFQERINCLEGSHEFFEAIGFKKVTLPVPDQEGQEEFYVLGEDARAQPQNLARHKQQLLDAEPVRATLDRQLRVFRPSALASHFELPSDFFSLTAEEVKREQRLRTEAVERLSSLRTKAMREKEEQRELRKYTYALVRVRLPDGCLLQGTFYAREKLSALFRFVREALQNDWLPFELRASGGQKLEENEALALNECGLVPSALLTFSWDASVLEDIRAAGAEPAKSVLRPELLAAIEQLS | soluble |
| MTENALLLLNLGSPDSTRVEDVRRYLDQFLMDPYVVDLPWPLRRLLVSLILIKRPAESAHAYSSIWWDEGSPLIVLSRRLQEAMKPHWPHGPVELAMRYGQPAIEKVLLDLARRGIRRVTLAPLYPQFADSTTTTAEQEVRRVIAAHRLGLEVSTLPPFYDQPVYLDALVESVRPYLQQPHDHLLLSFHGLPERHIRKLVKDPAHDLLAENSRNVSPEALALCYRSQCLRTAEAFAERAGLEQGRWSVSFQSRLGRAKWIEPYTDAKLDELVQRGVKRLLVMCPAFVADCIETLEEIGMRGREQFISAGGEDLVLIPCLNDHPAWVGALAEMSGRLARPL | not soluble |
| MGSDKIHHHHHHMTRSAEPRVLQFCHGYDGPFLDCARQYASLFAGTPYKVTTVFLTGRSDPEVAARCASDEVLFLEYGSRDIRGLKLKAIRDLREIARSRDFRFCIAHRFKPIWIASLATRLPIVGVHHAFGDYQRLSRKVFAGLMSKRLSLLAVSDAVRDDIRRCLPKWPAERIETLYNRIDVAALQAEQVERLSARRQLRLPDEAWVVGNVGRLHPDKDQATLLRGFAAALPRLPQNSLLAILGSGRLEEQLKDLACELGIGERVLFLGQVEEARRYFKAFDAFALSSDHEPFGMVLLEAMVAGVPLIATACGGAREVVEGVGILFPLGDETALAEGLTHLAALDRRQREACARLMLERLETRFSDAAVRREFWRLPTIAGFASESAC | not soluble |
| GPLGSPPSKEILTLKQVQEFLKDGDDVVILGVFQGVGDPGYLQYQDAANTLREDYKFHHTFSTEIAKFLKVSLGKLVLMQPEKFQSKYEPRMHVMDVQGSTEASAIKDYVVKHALPLVGHRKTSNDAKRYSKRPLVVVYYSVDFSFDYRTATQFWRNKVLEVAKDFPEYTFAIADEEDYATEVKDLGLSESGGDVNAAILDESGKKFAMEPEEFDSDALREFVMAFKKGKLKPVIKSQPVPKNNKGAAAS | soluble |
| MGHHHHHHSHRNLDSRTFITIGDRNFEVEADDLVTISELGRGAYGVVEKVRHAQSGTIMAVKRIRATVNSQEQKRLLMDLDINMRTVDCFYTVTFYGALFREGDVWICMELMDTSLDKFYRKVLDKNMTIPEDILGEIAVSIVRALEHLHSKLSVIHRDVKPSNVLINKEGHVKMCDFGISGYLVDSVAKTMDAGCKPYMAPERINPELNQKGYNVKSDVWSLGITMIEMAILRFPYESWGTPFQQLKQVVEEPSPQLPADRFSPEFVDFTAQCLRKNPAERMSYLELMEHPFFTLHKTKKTDIAAFVKEILGEDS | not soluble |
| MGSDKIHHHHHHMIITTALANEIVARAMAIIHHNVNVIDHHGQIIASGERHRIGEQHEVAREVIRTGKRICINNAAEAARFHNVHPGINHPIIYDDRVVMVVGISGDPAAISRYAELAVLTAELLVRQAIEMRETNWRQRLRDTLFCQYLEQGATPAGQEALHRLLELGFDFDTPRVPIVVTVQVEQHQLSDILSTLLREFSQLSGVSDVILLGSHEILILNALSEAQETLLRGIEFVLSNQISHYHIGIGVQADSAPDIREAIRFARSVIEVGSKVQPQRQIYYFREMAMLCLFRVLEDSYMVNFFINNVRQLLEHDSGEVLLDTLSSFIANNAEPGKTSLLLGIHRNTLTYRLQQIKKHIQLDPMVFTDLTQLAVSVHCYRRLNPRQSEWIDSLS | not soluble |
| MLPNNQWQIPINNGLTHQENMAAHAAVMKLRVHDLQSIISQLSLRKPRPQKSEHQKVVVESLRDPHHARQIYQMVISLIFSSLQASNFPNGNYEMQKRPATTSQVRSHPYVLPSRSGASNHLVNHHYQQQQQQQPQPHNLLHQQMMASHHSHLQQQHHPSTPKKMYADNFEPLPLPFYDVISVLLKPVELHSSDSPTLKQTKQLQFPFLLTAEHISKISYRADVTPLPRYELQLRFFNLTEPVQGPQKDDFPLNCYARVDDSVVQLPNVIPTNKTNAEPKRPSRPVNITSNMNRYKKEHTVAVEWLADKRVWAAGVYFVHRVNSDILFKRLNQNVSRHRSLEVTKQEVIKKLSGGEDDIAMDRLNISLLDPLCKTRMTTPSRCQDCTHLQCFDLLSYLMMNEKKPTWQCPVCSSNCPYDRLIVDDYFLDMLAKVDKNTTEVELKEDGSYDVIKEEAFCISDDDDDDVVPATVNGTASCSSTNGNGLANEAAKKKPADDDIITLSDDDDEELNRGIMNSLNDSFSPGRHTASAELAAQKTPPQQKKKTKDDDIEIITLDDTPPRPVAASANLPMRQMSQQNQMPVGSSPSGMASTQMGMNEGASKTIRDALNKIGEPMINQAPHFQMQNGLIGRNNQMVHMQQHHLQQQQQQQQSPQIMSPSFYAQQQMSNGGAFAYYPPQYPQQQYRQN | not soluble |
| MERIETIPTDKEHLSQDEVIRLASTPCSAPALKRAFLFSCLTALRKSDIKKLTWEEIQPYGSDGVMYVTTRMQKTKDIVHNPISEEALELIGYSPDKRGKVFPDFKDSMTQAPLKNWLKDAGITKHISYHCSRHSFACLQLDAGTSIAVVQRYLGHKNVATTEVYAKISDAQKRASVGLEHHHHHH | soluble |
| MENAPLLFQLPDDDTLYQALLARDPAYEGFAFVGVKSTGVFCRLTCAARKPKRENTVFFGSIKGCVEAGFRACLRCRPLERAGVQEPWVQTLLEQLGRDPERRWYEDDLVAQGLDPSTVRRAFKRYFGVTFLEMARLRRMGQGMQQLASGEPVIEAQISAGFDSDSGFRHAFSRLAGQPPSNLRGRELLKVDWLQTPIGVMLAVADAQVLHLLEFFDRPALANELQNLQKSSGSSIGFGRFAPIDQIEAELQRYFAGEAVHFATPLAMSASPFTRTVWQALRAIPLGTTCSYAEVARQVGSPSAVRAVARANAANQISIVIACHRVIGADGSLTGYGGGLEHHHHHH | not soluble |
| MGSDKIHHHHHHMKIILANPRGFCAGVDRAISIVELALEIHGAPIYVRHEVVHNRFVVDGLRDRGAIFVEELDEVPNGAIVIFSAHGVSQAVRQEAKERNLKVFDATCPLVTKVHMQVARASRKGTKAILIGHEGHPEVIGTMGQYDNDKGGIYLVEDVEDIAKLTLRNDEDITFMTQTTLSIDDTADVIEVLKQKYPAIQGPRKNDICYATTNRQQAVRELAELSDLVIVVGSKNSSNSNRLAELASRMGVTAKLIDDANDIEVSWLNNVKVIGLTAGASAPEILVQSVISRLKELGVDEVEELEGCEENTVFEVPKELRINKVE | not soluble |
| MTQHFPTRQLRFFLTAPTPCPYLPGREERKVFAHLPLSDGPIVNDSLTQVGFRRSQNIAYRPACETCRACQSARAPATEYILSRSERKILGRNDDLERHLVEAEATLEQFELLRRYLLTRHADGGMAEMTWPDYVAMVEDTAVRTHLIEYRRKSLDRGPGDLVACVLVDVLADGLSLVYSFYEPDQPRRSLGSFIILDHIVQAQQNALPYVYLGYWVPGSEKMAYKARFSPLEILKPGGWSLMSARERGARPPRGPGALKDACDLPLSDAQPADIEDLDLEHHHHHH | not soluble |
| MPTDDKARPRKTLTIKKTAPAAPSADDEAPRRKRIGARARLVAQMERAKEQQHAPRRKAPRQDAAHQDDAPRRRPRAPREAEIFPVYAPCPQGIEEALAAEMQALGFEDARAGRAGCAFSTDWAGVQRANLYSRLATRILVQVAQADIGHEDDILDLARSVPWERWFGPDETLRVDTSAIKSPVKSLQYCNLRAKDGICDRLREVEGARPDIDTVRPDARVHLFLSGTTATLYLDTSGESLFKRGWRLDKGEAPLRENLAAGMLALAGWDPAEPLLDPFCGSGTILIEAAWIALGVPPGISRPFGFERLRNHDARRWQDLKADARTRIQTQLETPLFGYDLDPRAIQYAQANAERAWLTADTIRFEVGDARHLAAPADHGWIVTNPPYGERMETEDDSEMWRDWAACLKRQFAGWQVHVISSDMTLPQRLRLKPLRRVPLHNGALDCRLFGFELVPASYRKPA | not soluble |
| MGHHHHHHSHMDLDSGDVKRRVHLFETQRRTKEEDPIIPFSDGPIISKWGAISRSSRTGYHTTDPVQATASQGSATKPISVSDYVPYVNAVDSRWSSYGNEATSSAHYVERDRFIVTDLSGHRKHSSTGDLLSLELQQAKSNSLLLQREANALAMQQKWNSLDEGRHLTLNLLSKEIELRNGEVKKLNLSASCLMYLFSAAASWLYHY | not soluble |
| TTNLFGFGIDAESRLDLNSKDMTPEKKAKAESETKRLQEFIRYANLDEGTETVFQNIIEDQEKTGNGYIEVLRDGKGQPVELVHCDSQYIRVCKKTEPVEVGYTIMEKGEPVNILRNKRFRKFVQIIDEKKVWFKEYGDPRIMDSTNGNYVEESELESKEFRDATEIIHFKIGTSAYGVPRWIGNVVSLYGARKAEELNLLYFVNGRHVPAAVVVQGGLLDEDAYNNLEEYMKGVSGTENAYQFLVLEVQGEEITNANGDKNLSDVKVEIKSLADMIQKDAMFLEYDATHRKKMRSSFRLPPIYTGEADEYNKATAETARKTTEEQVFQPMRRKLARKINGAFLEALDISEAKLVLKSPDLTDIASISNAIYPFISAASVIPNDLRPMLE | not soluble |
| GSMASAAVANYEEEIVRPVADFSPSLWGDQFLSFSIKNQVAEKYAKEIEALKEQTRNMLLATGMKLADTLNLIDTIERLGISYHFEKEIDDILDQIYNQNSNCNDLCTSALQFRLLRQHGFNISPEIFSKFQDENGKFKESLASDVLGLLNLYEASHVRTHADDILEDALAFSTIHLESAAPHLKSPLREQVTHALEQCLHKGVPRVETRFFISSIYDKEQSKNNVLLRFAKLDFNLLQMLHKQELAQVSRWWKDLDFVTTLPYARDRVVECYFWTLGVYFEPQYSQARVMLVKTISMISIVDDTFDAYGTVKELEAYTDAIQRWDINEIDRLPDYMKISYKAILDLYKDYEKELSSAGRSHIVCHAIERMKEIVRNYNVESTWFIEGYTPPVSEYLSNALATTTYYLLATTSYLGMKSATEQDFEWLSKNPKILEASVIICRVIDDTATYEVEKSRGQIATGIECCMRDYGISTKEAMAKFQNMAETAWKDINEGLLRPTPVSTEFLTPILNLARIIEVTYIHNLDGYTHPEKVLKPHIINLLVDSIKI | soluble |
| MGVVHDVWRATKELLEATALPWPSEEREERLAAVDRLLREREELLRKLRPPYSEEEQELGREIIVWNQEIEARLLRVCEEIRRDLRMTGAKRQANARYVHPYEQPLSFDGMFYDKRR | not soluble |
| GHMGKPDISAKDLRNIMYDHLPGFGTAFHQLVQVICKLGKDSNSLDIIHAEFQASLAEGDSPQCALIQITKRVPIFQDAAPPVIHIRSRGDIPRACQKSLRPVPPSPKIDRGWVCVFQLQDGKTLGLAI | soluble |
| MSLKDRYILAFETSCDETSVAVLKNDDELLSNVIASQIESHKRFGGVVPEVASRHHVEVITACIEEALAEAGITEEDVTAVAVTYGPGLVGALLVGLSAAKAFAWAHGLPLIPVNHMAGHLMAAQSVEPLEFPLLALLVSGGHTELVYVSEAGDYKIVGETRDDAVGEAYDKVGRVMGLTYPAGREIDELAHQGQDIYDFPRAMIKEDNLEFSFSGLKSAFINLHHNAEQKGESLSTEDLCASFQAAVMDILMAKTKKALEKYPVKTLVVAGGVAANKGLRERLATEITDVNVIIPPLRLCGDNAGMIAYASVSEWNKENFANLDLNAKPSLAFDTMEEGHHHHHH | soluble |
| SGGGGKAWPTHVVCSDSGLEVLYQSCDPLQDFGFSVEKCSKQLKSNINIRFGIILREDIKELFLDLALMSQGSSVLNFSYPICEAALPKFSFCGRRKGEQIYYAGPVNNPEFTIPQGEYQVLLELYTEKRSTVACANATIMCS | soluble |

From the DeepSol protein solubility set
